Test results published in PMC6436938.

Columns and labels:
[1] = target: Impβ labeled with fluorescent Alexa 488 dye (human) (UniProt Q14974); assay: native gel or EMSA
[2] = target: Impβ6M labeled with fluorescent Alexa 488 dye (human) (UniProt Q14974); assay: native gel or EMSA
Chain of Impβ6M labeled with fluorescent Alexa 488 dye (human) (Q14974 whole entry L174S/T175A/I178D/E214A/F217A/I218D): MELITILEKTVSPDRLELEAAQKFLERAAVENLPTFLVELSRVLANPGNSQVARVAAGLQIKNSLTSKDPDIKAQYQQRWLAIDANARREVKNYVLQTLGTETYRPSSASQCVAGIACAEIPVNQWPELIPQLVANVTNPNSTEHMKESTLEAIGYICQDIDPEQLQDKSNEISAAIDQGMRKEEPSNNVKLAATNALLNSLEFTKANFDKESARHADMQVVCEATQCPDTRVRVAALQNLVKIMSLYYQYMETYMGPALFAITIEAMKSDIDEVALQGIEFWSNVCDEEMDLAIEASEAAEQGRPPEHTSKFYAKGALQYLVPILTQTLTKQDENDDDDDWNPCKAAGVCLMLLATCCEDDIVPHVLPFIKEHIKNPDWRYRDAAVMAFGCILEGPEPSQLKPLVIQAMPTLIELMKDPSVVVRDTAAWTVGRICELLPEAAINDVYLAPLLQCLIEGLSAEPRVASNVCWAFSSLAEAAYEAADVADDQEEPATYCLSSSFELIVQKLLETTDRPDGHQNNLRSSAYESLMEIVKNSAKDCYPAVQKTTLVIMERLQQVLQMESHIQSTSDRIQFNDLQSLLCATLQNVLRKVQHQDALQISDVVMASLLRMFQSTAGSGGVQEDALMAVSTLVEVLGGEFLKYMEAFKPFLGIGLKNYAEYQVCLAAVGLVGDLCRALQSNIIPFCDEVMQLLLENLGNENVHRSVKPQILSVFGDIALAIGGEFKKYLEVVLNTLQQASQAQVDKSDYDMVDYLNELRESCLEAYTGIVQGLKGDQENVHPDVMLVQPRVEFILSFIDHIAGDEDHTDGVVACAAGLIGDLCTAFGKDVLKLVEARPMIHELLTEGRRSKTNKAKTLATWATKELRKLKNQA

Chain of Impβ labeled with fluorescent Alexa 488 dye (human) (Q14974 whole entry): as the sequence (Q14974 whole entry L174S/T175A/I178D/E214A/F217A/I218D) above, with S174L, A175T, D178I, A214E, A217F, D218I counted along it

| Kd [1] [µM] | Kd [2] [µM] | Substance |
| --- | --- | --- |
| 0.62 | 3.34 | importin α (Impα, Kapα) (from UniProt P52292 1-529) (natural protein) |
| 1.22 | – | Imp7 F1019S (natural protein) |
| 2.89 | – | Imp7 F1028S and F1030S (natural protein) |
| 0.92 | – | Impα F527S/F529S (from UniProt P52292 1-529) (natural protein) |
